Experimental data: paper PMC5679670, “The helicase DinG responds to stress due to DNA double strand breaks” (PLoS ONE, 2017)

What was measured:
DinGNm = target: T1, DinGNm (Neisseria meningitidis, UniProt Q9K181); experiment: forked DNA (T1+B1) unwinding, native PAGE; format: biochemical; details: 2 mM nucleotide, 2 mM Mg2+, 400 nM DinG, pH 7.5, 37 °C; read-out is nucleotide-dependent unwinding
T1 construct: gene dinG; full-length gene amplified from MC58 genomic DNA, C-terminal 6xHis tag (pET-28b(+), pSB13), E. coli NiCo21(DE3); Ni-NTA and Resource Q; iron-containing (4 Fe per protein)
T1 sequence (Q9K181 1-716): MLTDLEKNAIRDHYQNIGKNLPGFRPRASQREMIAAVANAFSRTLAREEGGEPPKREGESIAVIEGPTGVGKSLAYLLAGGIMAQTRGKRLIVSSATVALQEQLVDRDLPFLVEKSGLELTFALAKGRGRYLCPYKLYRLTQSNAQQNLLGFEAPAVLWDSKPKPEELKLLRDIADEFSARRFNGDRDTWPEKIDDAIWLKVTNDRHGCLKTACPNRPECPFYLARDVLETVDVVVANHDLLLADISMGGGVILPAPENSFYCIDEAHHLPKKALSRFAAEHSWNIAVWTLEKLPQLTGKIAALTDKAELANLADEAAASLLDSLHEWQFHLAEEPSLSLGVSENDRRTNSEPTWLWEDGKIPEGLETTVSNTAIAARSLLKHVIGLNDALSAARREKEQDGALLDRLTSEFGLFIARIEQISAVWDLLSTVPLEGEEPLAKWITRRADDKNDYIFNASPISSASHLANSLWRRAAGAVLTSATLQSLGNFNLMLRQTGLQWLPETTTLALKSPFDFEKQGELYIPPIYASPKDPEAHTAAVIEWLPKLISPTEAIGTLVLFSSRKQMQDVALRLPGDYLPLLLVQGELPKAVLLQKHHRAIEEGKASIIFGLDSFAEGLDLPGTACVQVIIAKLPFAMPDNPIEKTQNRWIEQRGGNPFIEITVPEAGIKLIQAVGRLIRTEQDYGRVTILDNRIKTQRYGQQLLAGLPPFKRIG

[1] = target: SSBNmΔ8C (N. meningitidis MC58); experiment: MST; SSB proteins labelled (RED-NHS, 20.7 nM), DinG proteins titrated as ligands; 20 mM HEPES pH 7.5, 300 mM NaCl, 0.05% Tween 20, 0.1% Pluronic F-127, 0.1% PEG 8000, 2 mM DTT; 22°C, 20% MST power
DinGNmK72A = DinGNmK72A (Neisseria meningitidis MC58, UniProt Q9K181 1-716, K72A); experiment: EMSA; protein titration; mutant retained DNA binding affinity; EMSA: 40 mM Tris-HCl pH 8, 2.5 mM EDTA, 2 mM MgCl2, 100 mg/ml BSA (so in the source), 6% glycerol, 2 mM DTT, 0.1 nM 32P-DNA, 15 min on ice; 5% native PAGE in ice bath; details: protein: recombinant; tags: C-terminal 6xHis; label: 32P; single strand
[2] = target: T2, Neisseria meningitidis helicase DinG (DinGNm) (N. meningitidis MC58, UniProt Q9K181 1-716); experiment: MST; SSB proteins labelled (RED-NHS, 20.7 nM), DinG proteins titrated as ligands; 20 mM HEPES pH 7.5, 300 mM NaCl, 0.05% Tween 20, 0.1% Pluronic F-127, 0.1% PEG 8000, 2 mM DTT; 22°C, 20% MST power; details: both partners purified
T2 construct: DinG helicase of Neisseria meningitidis strain MC58, gene amplified from genomic DNA and cloned into pET-28b(+) (plasmid pSB13); also called Nm DinG; DNA damage-inducible protein DinG; source: E. coli NiCo21 (DE3) with pLysS, purified (Ni-NTA, Resource Q ion exchange)
T2 sequence (looked up): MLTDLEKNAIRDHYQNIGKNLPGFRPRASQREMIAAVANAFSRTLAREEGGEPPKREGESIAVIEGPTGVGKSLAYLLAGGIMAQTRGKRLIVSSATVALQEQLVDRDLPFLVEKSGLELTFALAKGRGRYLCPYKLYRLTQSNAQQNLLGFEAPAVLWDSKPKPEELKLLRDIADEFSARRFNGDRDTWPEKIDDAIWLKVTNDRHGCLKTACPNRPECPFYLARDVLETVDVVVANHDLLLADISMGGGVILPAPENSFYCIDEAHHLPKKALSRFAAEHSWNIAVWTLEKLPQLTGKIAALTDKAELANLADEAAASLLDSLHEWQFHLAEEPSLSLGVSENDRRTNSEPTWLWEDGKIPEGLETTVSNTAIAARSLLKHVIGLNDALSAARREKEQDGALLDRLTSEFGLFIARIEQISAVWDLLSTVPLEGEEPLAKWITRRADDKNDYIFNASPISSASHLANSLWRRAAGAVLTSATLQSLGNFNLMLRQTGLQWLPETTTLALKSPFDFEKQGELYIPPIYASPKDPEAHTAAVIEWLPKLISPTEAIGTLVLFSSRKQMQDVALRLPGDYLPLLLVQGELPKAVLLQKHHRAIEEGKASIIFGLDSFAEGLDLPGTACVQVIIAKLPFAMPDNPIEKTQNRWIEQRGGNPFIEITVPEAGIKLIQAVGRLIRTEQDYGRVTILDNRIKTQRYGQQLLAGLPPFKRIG

For `Nc1ncnc2c1ncn2[C@H]1C[C@H](O)[C@@H](COP(=O)(O)OP(=O)(O)OP(=O)(O)O)O1` [dATP], the “forked DNA (T1+B1) unwinding, native PAGE” value (DinGNm) was “unwinding activity of DinGNm was observed only in the presence of ATP or dATP”.

B1: Neisseria meningitidis helicase DinG (DinGNm) (enzyme)
chain: MLTDLEKNAIRDHYQNIGKNLPGFRPRASQREMIAAVANAFSRTLAREEGGEPPKREGESIAVIEGPTGVGKSLAYLLAGGIMAQTRGKRLIVSSATVALQEQLVDRDLPFLVEKSGLELTFALAKGRGRYLCPYKLYRLTQSNAQQNLLGFEAPAVLWDSKPKPEELKLLRDIADEFSARRFNGDRDTWPEKIDDAIWLKVTNDRHGCLKTACPNRPECPFYLARDVLETVDVVVANHDLLLADISMGGGVILPAPENSFYCIDEAHHLPKKALSRFAAEHSWNIAVWTLEKLPQLTGKIAALTDKAELANLADEAAASLLDSLHEWQFHLAEEPSLSLGVSENDRRTNSEPTWLWEDGKIPEGLETTVSNTAIAARSLLKHVIGLNDALSAARREKEQDGALLDRLTSEFGLFIARIEQISAVWDLLSTVPLEGEEPLAKWITRRADDKNDYIFNASPISSASHLANSLWRRAAGAVLTSATLQSLGNFNLMLRQTGLQWLPETTTLALKSPFDFEKQGELYIPPIYASPKDPEAHTAAVIEWLPKLISPTEAIGTLVLFSSRKQMQDVALRLPGDYLPLLLVQGELPKAVLLQKHHRAIEEGKASIIFGLDSFAEGLDLPGTACVQVIIAKLPFAMPDNPIEKTQNRWIEQRGGNPFIEITVPEAGIKLIQAVGRLIRTEQDYGRVTILDNRIKTQRYGQQLLAGLPPFKRIG
Work on B1 yielded a Kd [1] of 3.71 µM.

B2: poly dT100 (ssDNA)
DNA: TTTTTTTTTTTTTTTTTTTTTTTTTTTTTTTTTTTTTTTTTTTTTTTTTTTTTTTTTTTTTTTTTTTTTTTTTTTTTTTTTTTTTTTTTTTTTTTTTTTT
B2: binds (DinGNmK72A).

B3: Neisseria meningitidis single-stranded DNA binding protein (SSBNm) (natural protein, N. meningitidis MC58, UniProt P66848 1-174, looked up)
chain: MSLNKVILIGRLGRDPEVRYMPNGEAVCNFSVATSETWNDRNGQRVERTEWHNITMYRKLAEIAGQYLKKGGLVYLEGRIQSRKYQGKDGIERTAYDIVANEMKMLGGRNENSGGAPYEEGYGQSQEAYQRPAQQSRQPASDAPSHPQEAPAAPRRQPVPAAAPVEDIDDDIPF
modifications: in the MST assay labelled with the Monolith NT Protein Labeling Kit RED-NHS, degree of labelling 0.7
notes: SSB of Neisseria meningitidis, expression vector pEH1; Unlabelled in the ammonium sulphate co-precipitation
B3 was tested, and the Kd [2] was 1360 ± 110 nM.
